{"source": "patent US7994123B2", "about": "“Hybrid proteins with ErbB4 extracellular domain and neuregulin heparin-binding domain for targeting” (Wayne State University, priority 2004, dated 2011)", "molecules": {"B1": {"name": "B4: purified His-tagged erbB4 extracellular domain lacking the HBD (protein)", "chain": "VCAGTENKLSSLSDLEQQYRALRKYYENCEVVMGNLEITSIEHNRDLSFLRSVREVTGYVLVALNQFRYLPLENLRIIRGTKLYEDRYALAIFLNYRKDGNFGLQELGLKNLTEILNGGVYVDQNKFLCYADTIHWQDIVRNPWPSNLTLVSTNGSSGCGRCHKSCTGRCWGPTENHCQTLTRTVCAEQCDGRCYGPYVSDCCHRECAGGCSGPKDTDCFACMNFNDSGACVTQCPQTFVYNPTTFQLEHNFNAKYTYGAFCVKKCPHNFVVDSSSCVRACPSSKMEVEENGIKMCKPCTDICPKACDGIGTGSLMSAQTVDSSNIDKFINCTKINGNLIFLVTGIHGDPYNAIEAIDPEKLNVFRTVREITGFLNIQSWPPNMTDFSVFSNLVTIGGRVLYSGLSLLILKQQGITSLQFQSLKEISAGNIYITDNSNLCYYHTINWTTLFSTINQRIVIRDNRKAENCTAEGMVCNHLCSSDGCWGPGPDQCLSCRRFSRGRICIESCNLYDGEFREFENGSICVECDPQCEKMEDGLLTCHGPGPDNCTKCSHFKDGPNCVEKCPDGLQGANSFIFKYADPDRECHPCHPNCTQGCNGPTSHDCIYYPWTGHSTLPQHAKN", "modifications": "left off: small tags and cut ends", "notes": "purified His-tagged erbB4 extracellular domain lacking the HBD"}, "B2": {"name": "HBD-S-B4: prototypical fusion protein of NRG HBD, spacer and erbB4 ECD (SEQ ID NO:14) (protein)", "chain": "QKMKPATGLWVWVSLLVAAGTVQPSDSQSGYKKKERGSGKKPESAAGSQSPALPPRLKEMKSQESAAGSKLVLRCETSSEYSSLRFKWFKNGNELNRKNKPQNIKIQKKPGKSELRINKASLADSGEYMCKVISKLGNDSASANITIVESNEIITGMPASTEGAYVSSESPIRISVSTEGANTSSSTSTSTTGTSGTQSVCAGTENKLSSLSDLEQQYRALRKYYENCEVVMGNLEITSIEHNRDLSFLRSVREVTGYVLVALNQFRYLPLENLRIIRGTKLYEDRYALAIFLNYRKDGNFGLQELGLKNLTEILNGGVYVDQNKFLCYADTIHWQDIVRNPWPSNLTLVSTNGSSGCGRCHKSCTGRCWGPTENHCQTLTRTVCAEQCDGRCYGPYVSDCCHRECAGGCSGPKDTDCFACMNFNDSGACVTQCPQTFVYNPTTFQLEHNFNAKYTYGAFCVKKCPHNFVVDSSSCVRACPSSKMEVEENGIKMCKPCTDICPKACDGIGTGSLMSAQTVDSSNIDKFINCTKINGNLIFLVTGIHGDPYNAIEAIDPEKLNVFRTVREITGFLNIQSWPPNMTDFSVFSNLVTIGGRVLYSGLSLLILKQQGITSLQFQSLKEISAGNIYITDNSNLCYYHTINWTTLFSTINQRIVIRDNRKAENCTAEGMVCNHLCSSDGCWGPGPDQCLSCRRFSRGRICIESCNLYDGEFREFENGSICVECDPQCEKMEDGLLTCHGPGPDNCTKCSHFKDGPNCVEKCPDGLQGANSFIFKYADPDRECHPCHPNCTQGCNGPTSHDCIYYPWTGHSTLPQHAKN"}}, "key": {"[1]": {"tested_on": "erbB receptor phosphorylation (p185) in L6 cells", "assay": "L6 assay: block of NRG-induced erbB receptor phosphorylation (p185)", "format": "cell-based", "conditions": "preincubated with L6 muscle cells one hour, thoroughly washed before adding recombinant neuregulin", "procedure": "4. Cell culture: The L6 cells were cultured in DMEM supplemented with 10% fetal calf serum, 1 mM L-glutamine and 1000 U/ml penicillin/streptomycin at 37° C. in 10% CO2 incubator. The HEK293 cells were cultured in DMEM with 10% fetal calf serum, 1 mM L-glutamine, 2 mM sodium pyruvate, 0.1 mM non-essential amino acids, 1000 U/ml penicillin/streptomycin at 37° C. in 10% CO2 incubator. The selective antibiotics Geneticin 200 μg/ml (Gibco-Invitrogen) was added to the cell cultures of stably transfected HEK293 cells harboring the NRG antagonists. 5. Stable expression of NRG antagonists in HEK293 cells: HEK293 cells were cultured in […] flasks to 80% confluence and transfected with the four NRG antagonist constructs using lipofectamine 2000 (Invitrogen Life Science) as instructed. The antibiotic Geneticin was then added at a concentration of 400 μg/ml to the transfected HEK293 cells to select the positive antagonist transfected cells. After three weeks of Geneticin selection, the transfected HEK293 cells were diluted and plated in 96 well plates to yield single positive clones. The single clones that expressed the highest levels of antagonists (confirmed by western blot using HA antibody) were then maintained in culture media with 200 μg/ml Geneticin. Optimem I (Gibco-Invitrogen) was applied to the stably transfected NRG antagonist cell lines at 37° C. in 10% CO2 incubator for 2 days. The conditioned Optimem I media was then used in the following experiments. 6. Heparin column binding: The conditioned media containing the four NRG antagonists was passed through the heparin column to allow binding to heparin. The excessive unbound antagonist proteins were washed off by 1×PBS twice. The antagonist proteins were then eluted by increasing concentration of NaCl (0.25, 0.3, 0.4, 0.5, 0.6 and 1M). The flow through solution from each step was examined by anti-HA western blots, as described later, to determine heparin binding ability of the antagonists. 7. Purification and quantitation of recombinant proteins: The NRG antagonists were purified by anti-HA affinity matrix (3F10) (rat mAb) according to manufacturer's instructions. Briefly, the column was equilibrated with buffer containing 20 mM Tris pH 7.5, 0.1 M NaCl, 0.1 M EDTA, and each antagonist in conditioned medium was applied individually to the anti-HA affinity matrix. Excess unbound antagonist proteins were washed with 20 volume of washing buffer (20 mM Tris pH 7.5, 0.1 M NaCl, 0.1 M EDTA and 0.05% Tween 20). The bound NRG antagonists were eluted with 0.1 M glycine (pH 2). The purified recombinant protein was then quantified using a BioRad Protein Assay kit (Bio-Rad, Hercules, Calif.) 8. Silver stain: Both the conditioned media and the purified NRG antagonists were resolved on 7.5% reducing SDS-polyacrylamide gels. The gel was fixed with 30% ethanol and 10% acetic acid for 30 min. 10% ethanol and ultrapure water were used subsequently to wash the gel before staining with SilverSNAP stain solution with enhancer for 30 min. The gel was then developed using SilverSNAP developer solution with enhancer. 5% acetic acid was used to stop the reaction when the desired band intensity was reached. The gel was dried on filter paper using a vacuum gel dyer. 9. […] Positive control L6 cells were treated with 50 pM NRG alone. L6 cell lysates were prepared and run on 5% SDS-PAGE gel. Western blots of erbB receptor phosphorylation were performed using 4G10 antibody. 10. Western blot: Western blots were performed on both conditioned NRG antagonist media and the antagonist-treated L6 cells. The antagonist proteins and the L6 cells were solubilized in SDS sample buffer and boiled for 5 min as described above (see also Li et al., supra). The NRG antagonists run on 7.5% SDS-PAGE gel were detected by anti-HA mAb HA.11. Phosphotyrosine mAb 4G10 was used to detect phosphorylated erbB receptor (p185) in L6 cell western blot analysis following resolution on overrun 5% reducing SDS-polyacrylamide gels. […]"}, "[2]": {"tested_on": "malignant masses (carcinomas, sarcomas, gliomas and medulloblastomas)", "assay": "Anti-tumor effects in human patients", "format": "in vivo", "text": "All patients to be treated have histologically confirmed malignant masses confirmed by biopsy or cytology are entered. Malignant diseases including carcinomas, sarcomas, gliomas and medulloblastomas. […] Patients in all stages of malignant disease involving any organ system are included. Staging describes both tumor and host, including organ of origin of the tumor, histologic type, histologic grade, extent of tumor size, site of metastases and functional status of the patient. For a general classification includes the known ranges of Stage 1 (localized disease) to Stage 4 (widespread metastases), see Abraham J et al., Bethesda Handbook of Clinical Oncology, Lippincott, Williams & Wilkins, Philadelphia, Pa., 2001 (or a more recent edition). Patient history is obtained and physical examination performed along with conventional tests of cardiovascular and pulmonary function and appropriate radiologic procedures. The malignant masses are visible on x-ray or CT scan and/or are measurable with calipers. They have not been undergoing any other anticancer treatment for at least one month and have a clinical KPS of at least 50.\nHBD-S-B4 is administered intravenously in doses of 0.01-100 μg/kg intratumorally once every 2-7 days. Patient Evaluation: Assessment of response of the tumor to the therapy is made once per week during therapy and 30 days thereafter using CT or x-ray visualization. Depending on the response to treatment, side effects, and the health status of the patient, treatment is terminated or prolonged from the standard protocol given above. Tumor response criteria are those established by the WHO and RECIST (Response Evaluation Criteria in Solid Tumors) summarized below (e.g., Abraham et al., supra)\nThe efficacy of the therapy in a patient population is evaluated using conventional statistical methods, including, for example, the Chi Square test or Fisher's exact test. Long-term and short term changes in measurements are evaluated separately."}}}
{"molecule": "B1", "values": [{"measurement": "sustained blockade of neuregulin signaling (p185 phosphorylation)", "setting": "[1]", "result": "no sustained effects"}]}
{"molecule": "B2", "values": [{"measurement": "% of Patients Responding, <PR", "setting": "[2]; All Patients", "result": 5.3, "unit": "%"}, {"measurement": "% of Patients Responding, CR", "setting": "[2]; All Patients", "result": 59.7, "unit": "%"}, {"measurement": "% of Patients Responding, PR", "setting": "[2]; All Patients", "result": 11.3, "unit": "%"}, {"measurement": "No. of patients, Response <PR", "setting": "[2]; All Patients (400 treated)", "result": 21}, {"measurement": "No. of patients, Response CR", "setting": "[2]; All Patients (400 treated)", "result": 239}, {"measurement": "No. of patients, Response PR", "setting": "[2]; All Patients (400 treated)", "result": 45}, {"measurement": "% of Patients Responding, CR + PR + <PR", "setting": "[2]; Brain glioma/astrocytoma", "result": 61, "unit": "%"}, {"measurement": "% of Patients Responding, CR + PR + <PR", "setting": "[2]; Breast adenocarcinoma", "result": 85, "unit": "%"}, {"measurement": "% of Patients Responding, CR + PR + <PR", "setting": "[2]; Gastrointestinal carcinoma", "result": 77, "unit": "%"}, {"measurement": "% of Patients Responding, CR + PR + <PR", "setting": "[2]; Ovarian carcinoma", "result": 82, "unit": "%"}, {"measurement": "overall response rate", "setting": "[2]; all tumors", "result": "about 76%"}, {"measurement": "patients with objective clinical responses", "setting": "[2]; all tumors", "result": "Three hundred and five"}, {"measurement": "CBC, renal and liver functions tests after treatments", "setting": "[2]; human, in vivo", "result": "do not change significantly"}, {"measurement": "average duration of responses", "setting": "[2]; human, in vivo", "result": 24, "unit": "months"}, {"measurement": "incidence of side effects: bloody nose", "setting": "[2]; human, in vivo", "result": "1 % of total treatments"}, {"measurement": "incidence of side effects: blurred vision", "setting": "[2]; human, in vivo", "result": "< 1 % of total treatments"}, {"measurement": "incidence of side effects: chills", "setting": "[2]; human, in vivo", "result": "10 % of total treatments"}, {"measurement": "incidence of side effects: cramps", "setting": "[2]; human, in vivo", "result": "< 1 % of total treatments"}, {"measurement": "incidence of side effects: diarrhea", "setting": "[2]; human, in vivo", "result": "1 % of total treatments"}, {"measurement": "incidence of side effects: dizziness", "setting": "[2]; human, in vivo", "result": "< 1 % of total treatments"}, {"measurement": "incidence of side effects: fatigue", "setting": "[2]; human, in vivo", "result": "< 1 % of total treatments"}, {"measurement": "incidence of side effects: feeling faint", "setting": "[2]; human, in vivo", "result": "< 1 % of total treatments"}, {"measurement": "incidence of side effects: fever", "setting": "[2]; human, in vivo", "result": "10 % of total treatments"}, {"measurement": "incidence of side effects: flushing", "setting": "[2]; human, in vivo", "result": "1 % of total treatments"}, {"measurement": "incidence of side effects: gastritis", "setting": "[2]; human, in vivo", "result": "< 1 % of total treatments"}, {"measurement": "incidence of side effects: headache", "setting": "[2]; human, in vivo", "result": "3 % of total treatments"}, {"measurement": "incidence of side effects: hypertension", "setting": "[2]; human, in vivo", "result": "2 % of total treatments"}, {"measurement": "incidence of side effects: hypotension", "setting": "[2]; human, in vivo", "result": "2 % of total treatments"}, {"measurement": "incidence of side effects: itching/hives", "setting": "[2]; human, in vivo", "result": "1 % of total treatments"}, {"measurement": "incidence of side effects: joint pain", "setting": "[2]; human, in vivo", "result": "2 % of total treatments"}, {"measurement": "incidence of side effects: nausea", "setting": "[2]; human, in vivo", "result": "5 % of total treatments"}, {"measurement": "incidence of side effects: pain", "setting": "[2]; human, in vivo", "result": "5 % of total treatments"}, {"measurement": "incidence of side effects: rash", "setting": "[2]; human, in vivo", "result": "2 % of total treatments"}, {"measurement": "incidence of side effects: redness on hand", "setting": "[2]; human, in vivo", "result": "< 1 % of total treatments"}, {"measurement": "incidence of side effects: respiratory", "setting": "[2]; human, in vivo", "result": "3 % of total treatments"}, {"measurement": "incidence of side effects: tachycardia", "setting": "[2]; human, in vivo", "result": "2 % of total treatments"}, {"measurement": "incidence of side effects: twitching", "setting": "[2]; human, in vivo", "result": "< 1 % of total treatments"}, {"measurement": "incidence of side effects: vomiting", "setting": "[2]; human, in vivo", "result": "2 % of total treatments"}, {"measurement": "time at which objective remissions are evident", "setting": "[2]; human, in vivo", "result": "after four weeks of therapy"}, {"measurement": "toxicity", "setting": "[2]; human, in vivo", "result": "mild short-lived fever, fatigue and anorexia not requiring treatment"}, {"measurement": "positive tumor responses", "setting": "[2]; patients with breast, ovarian and gastrointestinal tumors", "result": "77-85%"}]}
